Measurements: publication PMC4387718, “In vivo biochemical analyses reveal distinct roles of β-importins and eEF1A in tRNA subcellular traffic” (Genes & Development, 2015)

Tests used:
[1] = target: T1, MORF (His6-HA epitope-ZZ protein A)-tagged Msn5 (S. cerevisiae, UniProt P52918 1-1224); experiment: co-IP; cells with locked RanGTP, formaldehyde cross-linked; extract treated with RNase A prior to purification of the beta-importin on IgG beads; Western blot with anti-eEF1A; settings: partners not purified
T1 construct: Msn5, beta-importin family member (yeast exportin-5 homolog), S. cerevisiae; Tagged protein is functional; also called Msn5-M; exportin-5 homolog; source: S. cerevisiae, endogenous promoter on a yeast episomal (YEp) vector, in cell extract
T1 sequence (looked up): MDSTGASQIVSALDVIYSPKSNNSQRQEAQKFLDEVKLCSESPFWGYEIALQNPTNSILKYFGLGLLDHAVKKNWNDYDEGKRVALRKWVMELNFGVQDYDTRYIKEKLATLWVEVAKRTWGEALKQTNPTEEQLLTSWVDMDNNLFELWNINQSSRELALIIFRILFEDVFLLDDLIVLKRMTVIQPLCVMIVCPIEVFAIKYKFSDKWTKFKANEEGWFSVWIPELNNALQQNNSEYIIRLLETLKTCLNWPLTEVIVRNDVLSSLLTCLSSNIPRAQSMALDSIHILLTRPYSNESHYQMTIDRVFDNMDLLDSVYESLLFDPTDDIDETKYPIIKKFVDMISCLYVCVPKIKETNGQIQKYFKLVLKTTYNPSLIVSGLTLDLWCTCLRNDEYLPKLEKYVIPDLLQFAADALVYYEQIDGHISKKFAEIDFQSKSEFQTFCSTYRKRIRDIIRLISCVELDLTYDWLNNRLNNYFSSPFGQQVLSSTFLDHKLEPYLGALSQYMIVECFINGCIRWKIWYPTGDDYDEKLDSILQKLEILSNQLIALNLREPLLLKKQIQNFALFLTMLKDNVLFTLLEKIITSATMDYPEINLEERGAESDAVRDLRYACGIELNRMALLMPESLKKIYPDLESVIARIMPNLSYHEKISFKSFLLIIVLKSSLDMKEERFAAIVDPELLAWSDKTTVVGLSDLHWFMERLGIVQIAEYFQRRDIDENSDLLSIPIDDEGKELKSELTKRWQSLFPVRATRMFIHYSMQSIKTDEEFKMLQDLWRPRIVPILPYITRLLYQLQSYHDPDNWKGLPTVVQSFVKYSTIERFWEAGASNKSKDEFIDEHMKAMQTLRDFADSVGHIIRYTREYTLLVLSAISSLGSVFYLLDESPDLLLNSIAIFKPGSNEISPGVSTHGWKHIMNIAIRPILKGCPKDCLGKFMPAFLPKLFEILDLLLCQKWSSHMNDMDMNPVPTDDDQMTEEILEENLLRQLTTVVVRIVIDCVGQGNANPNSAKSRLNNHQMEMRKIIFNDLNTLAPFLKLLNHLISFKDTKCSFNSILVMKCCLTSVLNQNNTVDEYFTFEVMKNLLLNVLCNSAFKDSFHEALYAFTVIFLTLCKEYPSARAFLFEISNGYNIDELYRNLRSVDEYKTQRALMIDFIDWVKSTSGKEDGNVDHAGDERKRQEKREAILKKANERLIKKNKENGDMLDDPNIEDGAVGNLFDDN

[2] = target: T1, MORF (His6-HA epitope-ZZ protein …); experiment: co-IP; cells with RanGTP-locked mutant, without cross-linking; complex immunoprecipitated on beads first and then treated with RNase A (condition R*); Western blot with anti-eEF1A; settings: partners not purified

B1: untagged Tef2 (natural protein, S. cerevisiae (endogenous in yeast), UniProt P02994 1-458, looked up)
chain: MGKEKSHINVVVIGHVDSGKSTTTGHLIYKCGGIDKRTIEKFEKEAAELGKGSFKYAWVLDKLKAERERGITIDIALWKFETPKYQVTVIDAPGHRDFIKNMITGTSQADCAILIIAGGVGEFEAGISKDGQTREHALLAFTLGVRQLIVAVNKMDSVKWDESRFQEIVKETSNFIKKVGYNPKTVPFVPISGWNGDNMIEATTNAPWYKGWEKETKAGVVKGKTLLEAIDAIEQPSRPTDKPLRLPLQDVYKIGGIGTVPVGRVETGVIKPGMVVTFAPAGVTTEVKSVEMHHEQLEQGVPGDNVGFNVKNVSVKEIRRGNVCGDAKNDPPKGCASFNATVIVLNHPGQISAGYSPVLDCHTAHIACRFDELLEKNDRRSGKKLEDHPKFLKSGDAALVKFVPSKPMCVEAFSEYPPLGRFAVRDMRQTVAVGVIKSVDKTEKAAKVTKAAQKAAKK
notes: Tef2, yeast translation elongation factor 1 alpha (eEF1A), product of TEF2; Detected with anti-eEF1A; comigrates with Tef1-Myc; also called Tef1/2; eEF1A; source: endogenous, S. cerevisiae cell extract
percent of copurified Tef1/2 relative to mock treatment [1]: ~90% | percent of copurified Tef1/2 relative to mock treatment [2]: ~40%

B2: endogenously 3Myc-tagged Tef1 (natural protein, S. cerevisiae, UniProt P02994 1-458, looked up)
chain: MGKEKSHINVVVIGHVDSGKSTTTGHLIYKCGGIDKRTIEKFEKEAAELGKGSFKYAWVLDKLKAERERGITIDIALWKFETPKYQVTVIDAPGHRDFIKNMITGTSQADCAILIIAGGVGEFEAGISKDGQTREHALLAFTLGVRQLIVAVNKMDSVKWDESRFQEIVKETSNFIKKVGYNPKTVPFVPISGWNGDNMIEATTNAPWYKGWEKETKAGVVKGKTLLEAIDAIEQPSRPTDKPLRLPLQDVYKIGGIGTVPVGRVETGVIKPGMVVTFAPAGVTTEVKSVEMHHEQLEQGVPGDNVGFNVKNVSVKEIRRGNVCGDAKNDPPKGCASFNATVIVLNHPGQISAGYSPVLDCHTAHIACRFDELLEKNDRRSGKKLEDHPKFLKSGDAALVKFVPSKPMCVEAFSEYPPLGRFAVRDMRQTVAVGVIKSVDKTEKAAKVTKAAQKAAKK
notes: Tef1, yeast translation elongation factor 1 alpha (eEF1A), product of TEF1; Detected with anti-eEF1A and anti-Myc; comigrates with untagged Tef2, so the anti-eEF1A signal called Tef1/2 is of both; also called Tef1-Myc; Tef1/2; source: endogenously tagged, S. cerevisiae cell extract
percent of copurified Tef1/2 relative to mock treatment [1]: ~90% | percent of copurified Tef1/2 relative to mock treatment [2]: ~40%
